The target of experiment [1] is human CRF-R2β, stably transfected CHO cells (human) (UniProt Q13324). The experiment is described as follows: competitive displacement of [125I-Tyr0]Ucn from stably transfected CHO cells expressing human CRF-R2β; 95% confidence limits in brackets.
For a further experiment, the target named is T1, murine CRF-R2β (Mus musculus, UniProt Q60748).
T1 construct: expressed in transfected cells
Briefly: elevation of intracellular cAMP in cells expressing mCRF-R2β. Type of experiment: cell-based. The settings on record: read-out: ED50, elevation of cAMP. An excerpt:
CRF-R is used to refer to a family of receptor protein subtypes which participate in the G-protein-coupled response of cells to CRF and Ucn-like ligands. CRF-Rs are coupled by heterotrimeric G-proteins to various intracellular enzymes, ion channels, and transporters. The G-proteins associate with the receptor proteins at the intracellular face of the plasma membrane. An agonist binding to a CRF-R catalyzes the exchanges of GTP for GDP on the α-subunit (G-protein “activation”), resulting in its dissociation and stimulation of one (or more) of the various signal-transducing enzymes and channels. G-protein preferentially stimulates particular effectors, and the specificity of signal transduction may be determined, therefore, by the specificity of G-protein/receptor interaction. CRF-R proteins mediate signal transduction through the modulation of adenylate cyclase and perhaps through PI turnover. For example, when CRF or Ucn binds to and activates the CRF-R, adenylate cyclase causes an elevation in the level of intracellular cAMP. […] Such transformed cells are monitored for either an increase or decrease in the level of intracellular CAMP which provides a determination of the effectiveness of the potential agonist or antagonist. Methods for measuring intracellular levels of cAMP, or measuring cyclase activity, are well known in the art.

In the next experiment the test system is human CRF-R2β. Briefly: competitive displacement binding assay, CRF-R2β stably expressed in CHO cells. The settings on record: read-out: Ki (95% confidence limits); CRF-R2β in stably transfected CHO cells; displacement of [125I-Tyr0]Ucn. As to the method: Binding assays with cells expressing human CRF-R1 are carried out as described in the Chen et al. P.N.A.S., supra. The affinities of test peptides for CRF-R1 and CRF-R2β stably expressed in CHO cells were determined by competitive displacement of ^125I-(Nle^21, Tyr^32) ovine CRF (for CRF-R1) or of [^125II-Tyr^∘]Ucn (for CRF-R2β) as described.
(Displacement assays read how much labelled ligand stays bound in the presence of the test substance.)

In experiment [2] the test system is primary murine anterior pituitary cells. Type of experiment: cell-based. The settings on record: cultured rodent pituitary cells, read-out: EC50, secretion of ACTH. An excerpt:
A straightforward assay using rat anterior pituitary cells in monolayer culture can be carried out to determine whether a candidate peptide thereof will function as a CRF agonist and stimulate ACTH secretion by activating CRF receptors on such cells. The procedure which is used is that generally set forth in Endocrinology, 91, supra. A very similar assay is used to test for antagonistic properties, using a challenge dose of oCRF or the like.
To test the ability of purified Ucn or another candidate Ucn-like peptide to function as a CRF agonist and to promote ACTH production and/or secretion, cultures of dispersed primary murine anterior pituitary cells (0.15×10^6 cells/well are used), as generally described in Vale et al. Meth. Enzym., 103, 565-577 (1983), and in Endocrinology, 91, 562 (1972). These cultures are maintained in 0.5 ml/well of β-PJ (a reagent available from Kansas City Biochemicals) containing 2% fetal bovine serum. On the morning of culture day 5, the cells are washed 3 times with β-PJ containing 0.1% bovine serum albumin and then incubated for 1 hour at 37° C. in the same medium. The medium is then replaced with Ucn, or an analog thereof, diluted in β-PJ containing 0.1% bovine serum albumin. Incubations are terminated after 3 hours, at which time the medium is removed and stored at −20° C. until ACTH radioimmunoassays are performed using a suitable kit, such as that commercially available from Diagnostic Products Corporation of Los Angeles, Calif. Secreted ACTH is measured using Allfit computer program with results expressed as the average±s.e.m. of 3 replicate bioassays.

The next experiment has as its system rats. Briefly: ACTH secretion in vivo, ACTH level in plasma. The settings on record: 5 μg/kg dose, at 30 minutes.
Experiment [3] deals with T2, human CRF binding protein (human, UniProt P24387 25-322).
T2 construct: also called hCRF-BP; CRF-BP
T2 sequence (looked up): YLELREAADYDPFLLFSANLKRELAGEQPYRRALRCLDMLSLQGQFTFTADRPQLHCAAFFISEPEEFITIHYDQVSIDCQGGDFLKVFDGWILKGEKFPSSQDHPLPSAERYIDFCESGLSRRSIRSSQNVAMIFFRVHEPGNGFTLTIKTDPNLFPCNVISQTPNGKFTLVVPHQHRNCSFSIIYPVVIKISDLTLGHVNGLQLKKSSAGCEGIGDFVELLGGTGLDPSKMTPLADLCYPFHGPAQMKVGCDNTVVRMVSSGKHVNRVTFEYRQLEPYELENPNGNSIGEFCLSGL
The experiment is described as follows: competitive hCRF-BP ligand binding assay with [125I-DTyr0]hCRF. As to the method:
After incubating with the primary and secondary antisera for 30 minutes each, 1 ml of saline wash is added, and the test tubes are centrifuged at 2000× g for 20 minutes at 4° C. Precipitates are counted in a gamma counter. Inhibitory binding affinity constant (Kᵢ) values are determined using parameters calculated by the LIGAND computer program, Munson et al., Anal. Biochem., 107, 220 (1980), and a Vax/VMS computer system.

The target of experiment [4] is CRF receptors on anterior pituitary cells in culture. The experiment is described as follows: cell-based or functional assay.
Experiment [5] deals with T2, human CRF binding protein. Briefly: competitive hCRF-BP ligand binding assay with 125I[Nle21,Tyr32]-oCRF.

Where two headings read alike, the source gives them in different places. Where no end group is shown, it is not given here. [ ]: non-standard residue; d: D form.

T1 sequence (Q60748 1-431 isoform Q60748-2): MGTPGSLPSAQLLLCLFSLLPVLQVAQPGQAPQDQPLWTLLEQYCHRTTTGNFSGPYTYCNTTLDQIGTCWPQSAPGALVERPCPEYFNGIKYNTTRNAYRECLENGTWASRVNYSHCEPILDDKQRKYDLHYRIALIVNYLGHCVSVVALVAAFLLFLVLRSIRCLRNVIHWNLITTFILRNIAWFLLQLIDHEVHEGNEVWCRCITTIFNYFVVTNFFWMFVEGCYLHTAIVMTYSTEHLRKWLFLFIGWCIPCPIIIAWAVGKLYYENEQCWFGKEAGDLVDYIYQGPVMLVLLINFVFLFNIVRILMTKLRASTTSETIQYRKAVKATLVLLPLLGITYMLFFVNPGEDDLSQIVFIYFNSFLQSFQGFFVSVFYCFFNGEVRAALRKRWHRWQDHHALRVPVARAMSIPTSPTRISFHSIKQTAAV

Take rat urocortin (rat Ucn) (peptide): the Ki (in general, a dissociation constant, usually derived from enzyme kinetics or from competition with a known ligand) in experiment [1] was determined as 0.41 nM.

On to “H-NDDPPISIDLTFHLLRNMIEMARIENEREQAGLNRKYLDEV-NH2 [sfUI, reference compound]”, for which the EC50 was 0.74 nM at murine CRF-R2β and 0.017 ± 0.003 nM in experiment [2] (no unit printed for this value). For the same molecule, in the experiment with human CRF-R2β, the Ki was 3 nM.

With `CC[C@H](C)[C@H](NC(=O)[C@@H](NC(=O)[C@H](CC(=O)O)NC(=O)[C@H](CC(C)C)NC(=O)[C@H](CC(C)C)NC(=O)[C@H](CC(C)C)NC(=O)[C@H](CCCNC(=N)N)NC(=O)[C@H](CC(N)=O)NC(=O)[C@H](CC(N)=O)NC(=O)[C@H](C)NC(=O)[C@H](C)NC(=O)[C@H](CCC(N)=O)NC(=O)[C@H](CCC(N)=O)NC(=O)[C@H](CCCCN)NC(=O)[C@H](CCC(=O)O)NC(=O)[C@H](CCCCN)NC(=O)[C@H](CCC(=O)O)NC(=O)[C@H](CCC(N)=O)NC(=O)[C@H](CCCCN)NC(=O)[C@H](CCC(=O)O)NC(=O)[C@@H](NC(=O)[C@H](CCC(=O)O)NC(=O)[C@@H](NC(=O)[C@H](CCSC)NC(=O)[C@H](CCCCN)NC(=O)[C@H](CCCNC(=N)N)NC(=O)[C@H](CC(C)C)NC(=O)[C@H](CC(C)C)NC(=O)[C@H](CCC(=O)O)NC(=O)[C@H](CC(C)C)NC(=O)[C@H](CO)NC(=O)[C@H](CC(C)C)NC(=O)[C@H](CC(=O)O)NC(=O)[C@@H](NC(=O)[C@H](CO)NC(=O)[C@@H](NC(=O)[C@@H]1CCCN1C(=O)[C@@H]1CCCN1C(=O)CNC(=O)[C@@H]1CCC(=O)N1)[C@@H](C)CC)[C@@H](C)CC)[C@@H](C)CC)[C@@H](C)CC)[C@@H](C)O)C(N)=O` [sauvagine, reference compound], the Ki in the experiment with human CRF-R2β came out at 2 nM. The EC50 in experiment [2] (incubation 3 hours, average±s.e.m.) is roughly 0.033 nM.

Regarding `CC[C@H](C)[C@H](NC(=O)[C@@H](NC(=O)[C@H](CCC(=O)O)NC(=O)[C@H](CCSC)NC(=O)[C@H](CC(C)C)NC(=O)[C@H](CCCCN)NC(=O)[C@H](CCCNC(=N)N)NC(=O)[C@H](CC(N)=O)NC(=O)[C@H](CO)NC(=O)[C@H](Cc1c[nH]cn1)NC(=O)[C@H](C)NC(=O)[C@H](CCC(N)=O)NC(=O)[C@H](CCC(N)=O)NC(=O)[C@H](C)NC(=O)[C@H](CC(C)C)NC(=O)[C@H](CCC(N)=O)NC(=O)[C@H](CCC(=O)O)NC(=O)[C@H](C)NC(=O)[C@H](CCCNC(=N)N)NC(=O)[C@H](C)NC(=O)[C@H](CCSC)NC(=O)[C@H](CCC(=O)O)NC(=O)[C@H](CC(C)C)NC(=O)[C@@H](NC(=O)[C@H](CCC(=O)O)NC(=O)[C@H](CCCNC(=N)N)NC(=O)[C@H](CC(C)C)NC(=O)[C@H](CC(C)C)NC(=O)[C@H](Cc1c[nH]cn1)NC(=O)[C@H](Cc1ccccc1)NC(=O)[C@@H](NC(=O)[C@H](CC(C)C)NC(=O)[C@H](CC(=O)O)NC(=O)[C@H](CC(C)C)NC(=O)[C@H](CO)NC(=O)[C@@H](NC(=O)[C@@H]1CCCN1C(=O)[C@@H]1CCCN1C(=O)[C@H](CCC(=O)O)NC(=O)[C@H](CCC(=O)O)NC(=O)[C@@H](N)CO)[C@@H](C)CC)[C@@H](C)O)C(C)C)[C@@H](C)CC)C(N)=O` [r/hCRF, reference compound], the “ACTH level in plasma” value in the experiment on rats was found to be 422 ± 66 pg/mL.

For PPLSIDLTFHLLRTLLELARTQSQR (Printed without NH2) [Ucn(3-27)], the binding result in experiment [3] is “binds”.

As to DLTFHLLRTLLELARTQSQRERAEQ (Printed without NH2 at the C-terminus) [Ucn(8-32)], the binding result in experiment [3] is recorded as “binds”.

For the molecule DDPPLSIDLTFHLLRTLLELARTQSQRERAEQNRIIFDSV-NH2 [rat urocortin (rat Ucn)], the EC50, secretion of ACTH in cultured rodent pituitary cells in experiment [4] was determined as 0.006 nM.

Take SIDLTFHLLRTLIELARTQSQRER (Printed without NH2 at the C-terminus) [[Ile18]-Ucn(6-29)]: the binding result in experiment [3] was “binds”.

In the case of LSIDLTFHLLRTLLELARTQSQRERAEQ (Printed without NH2 at the C-terminus) [Ucn(5-32)], the binding result in experiment [3] is on record as “binds”.

The molecule SEEPPISLDLTFHLLREVLEMARAEQLAQQAHSNRKLMEII-NH2 (also called r/hCRF; rCRF) [rat/human CRF] had an EC50, secretion of ACTH in cultured rodent pituitary cells in experiment [4] of 0.043 nM. Moreover, the binding result in experiment [5] was “binds”.

B1: [D-Phe11]-Ucn(11-40) (peptide)
peptide: [dF]HLLRTLLELARTQSQRERAEQNRIIFDSV-NH2
modifications: N-terminus assumed
SMILES: CC[C@H](C)[C@H](NC(=O)[C@H](CCCNC(=N)N)NC(=O)[C@H](CC(N)=O)NC(=O)[C@H](CCC(N)=O)NC(=O)[C@H](CCC(=O)O)NC(=O)[C@H](C)NC(=O)[C@H](CCCNC(=N)N)NC(=O)[C@H](CCC(=O)O)NC(=O)[C@H](CCCNC(=N)N)NC(=O)[C@H](CCC(N)=O)NC(=O)[C@H](CO)NC(=O)[C@H](CCC(N)=O)NC(=O)[C@@H](NC(=O)[C@H](CCCNC(=N)N)NC(=O)[C@H](C)NC(=O)[C@H](CC(C)C)NC(=O)[C@H](CCC(=O)O)NC(=O)[C@H](CC(C)C)NC(=O)[C@H](CC(C)C)NC(=O)[C@@H](NC(=O)[C@H](CCCNC(=N)N)NC(=O)[C@H](CC(C)C)NC(=O)[C@H](CC(C)C)NC(=O)[C@H](Cc1c[nH]cn1)NC(=O)[C@H](N)Cc1ccccc1)[C@@H](C)O)[C@@H](C)O)C(=O)N[C@H](C(=O)N[C@@H](Cc1ccccc1)C(=O)N[C@@H](CC(=O)O)C(=O)N[C@@H](CO)C(=O)N[C@H](C(N)=O)C(C)C)[C@@H](C)CC
B1 displayed an antagonism of ACTH secretion under a challenge dose of ovine CRF, potency relative to the Standard Antagonist [D-Phe12, Nle21,38]-r/hCRF(12-41) (times Standard Antagonist) in experiment [4] of 0.551.
